Laboratory results from patent US7999070B2, “Process for screening of a binding peptide specific for specific RNA and RNA binding peptides therefrom” (priority 2005, dated 2011).
Where no end group is shown, it is not given here.

Key:
[1] = Circular dichroism (CD) of the selected peptide, percentage of alpha-helix; type: physicochemical; conditions: for degree of alpha-helices (percentage of alpha-helix, fn): CD at 20° C., 222 nm; for degree of alpha-helices, comparison with Rev peptide (number in parenthesis): relative to Rev peptide (natural RRE RNA binding peptide)
Procedure: CD was measured at 20° C. by using JASCO model J715 spectropolarimeter. Scanning of 190-260 nm wave length was performed three times with 1 nm of bandwidth, 0.5 nm of datapitch and 100 nm/min speed. The results of the scanning were averaged to obtain CD data. Background spectrum was measured to correct the basic spectrum, and CD signals were converted into mean residue ellipticity [Q]. The percentage of alpha-helix (fn) is calculated by the following formula. [Q]=Qobs[MRW/(101c)]
MRW=mean residue weight (molecular weight is divided by the number of peptide bond), I=length of passway (cm), C=concentration (mg/mL). fn=([Q]222−[Q]coil)/([Q]helix−[Q]coil)
[Q]222=mean residue ellipticity (deg cm2 mol−1) at 222 nm, [Q]helix=ellipticity of authentic helical peptide, [Q]coil=ellipticity of authentic random coil peptide, n=number of amino acid, t=° C.

RRE RNA of HIV-1 = assay: Binding capacity of peptide to RRE RNA, fluorescence anisotropy in competition with CRP probe
Procedure: 100 ml of RRE RNA solution was prepared at the concentration of […], which stood at 65° C. for 10 minutes. Then, the solution was cooled down slowly at room temperature to induce folding. Peptide solution was prepared respectively at the concentration of […] and 1.0 mM, and both of them were maintained at 0° C. […] CRP (5-carboxytetramethylrhodamine labeled paromomycin) was prepared as a probe. Buffer solution was prepared by mixing 140 mM NaCl, 5 mM KCl, 1 mM MgCl2 and 20 mM HEPES (N-2-Hydroxyethylpiperazine-N′-2-Ethanesulfonic Acid, pH 7.4). Fluorescence anisotropy was measured with AMINCO-Bowman Series Luminescence Spectrometer at 20° C. 10 nM CRP was added to […] of buffer solution, to which RRE RNA was added in order to combine CRP with RNA. At that time, anisotropy was increased. Thereafter, peptide competitively binding to CRP was added and the changes of anisotropy were measured. The binding capacity to RRE RNA of the peptide was determined by the KaleidaGraph as follows; [Peptide]=Kd(Amax−A)/[Kd(A−A0)+1]*[RNA]−Kd(A−A0)/(Amax−A)[CRP]0(A−A0)/(Amax−A0)
[Peptide] indicates the concentration of the peptide, [RNA] indicates the concentration of RNA and [CRP] indicates the concentration of CRP. A is the value of fluorescence anisotropy of a sample, Amax is the value of totally bound tracer and A0 is the value of totally free tracer.

TAR RNA = assay: Binding capacity to TAR RNA by fluorescence anisotropy
Procedure: (§1) The detailed investigation on the specificity of peptide 16 (SEQ. ID. No 16) was not performed in the present invention, however the binding capacity to TAR RNA and tRNA, general peptides having stem-loop, was tested by fluorescence anisotropy.

tRNA = assay: Binding capacity to tRNA by fluorescence anisotropy
Procedure: as §1

Substance	degree of alpha-helices (percentage of alpha-helix, fn) [1]	degree of alpha-helices, comparison with Rev peptide (number in parenthesis) [1]	Kd (RRE RNA of HIV-1) [nM]	binding capacity to TAR RNA (TAR RNA)	binding capacity to tRNA (tRNA)
LKK*LLKLLKKLLKLKG (LKK(dimethyl)LLKLLKKLLKLKG-NH2) [peptide 3, K* is dimethylated lysine]	4.9	0.72			
LKKLLKLLK*KLLK*LKG (LKKLLKLLK(dimethyl)KLLK(dimethyl)LKG-NH2) [peptide 25, K* is dimethylated lysine]	6.6	1.0			
LKKLLKLLKKLLK*LKG (LKKLLKLLKKLLK(dimethyl)LKG-NH2) [peptide 7, K* is dimethylated lysine]	2.7	0.40			
LKKLLKLLKKLLKLKG [peptide 1]	15	2.2			
LKK*LLKLLKKLLK*LKG (LKK(dimethyl)LLKLLKKLLK(dimethyl)LKG-NH2) [peptide 18, K* is dimethylated lysine]	4.9	0.71			
LK*KLLKLLK*KLLK*LKG (LK(dimethyl)KLLKLLK(dimethyl)KLLK(dimethyl)LKG-NH2) [peptide 33, K* is dimethylated lysine]	7.5	1.1			
LKK*LLKLLK*KLLKLKG (LKK(dimethyl)LLKLLK(dimethyl)KLLKLKG-NH2) [peptide 16, K* is dimethylated lysine]	13	2.0	< 1	hundreds and tens	hundreds and tens
